The text below walks through data of US20250243269A1 (ICAHN SCHOOL OF MEDICINE AT MOUNT SINAI, published 2025).

The target of the series is T1, human FSH (follicle stimulating hormone) (human, UniProt P01215 25-116; P01225 19-129).
T1 construct: also called purified human FSH; human FSH in PDB ID 4AY9
Briefly: thermal shift assay (Sypro-Orange), antibody 1.5 µg/µL with or without human FSH 0.5 µg/µL. As to the method: Next, 215 different anti-FSH antibody formulations comprising different combinations of salt, detergent and sugars were tested for thermal stability. The thermal shift assay used a fluorescent reporter, Sypro-Orange (Protein Thermal Shift Dye Kit, ThermoFisher, Catalog #4461146), to detect hydrophobic domains that are exposed following the heat-induced unfolding of globular proteins. anti-FSH antibodies (1.5 μg/μL), either in a test formulation or in PBS, were incubated with or without human FSH (0.5 μg/μL) at room temperature for 30 minutes, with fluorescence captured sequentially at 0.3° C. increments using a StepOne Plus Thermocycler (Applied Biosystems). Tm was calculated based on the inflection point of the melt curve, and thermal shift was derived from ΔTₘ=TₘA−TₘB.
This testing yielded an anti-FSH antibody formulation comprising a stock solution of 2 mg/mL in 20 mM phosphate, 0.001% (v/v) Tween-20, 1 mM NaCl, and 260 mM sucrose (pH=6.58). […] The binding of formulated anti-FSH antibodies to purified human FSH was tested. A ΔTₘ of 3.1° C. of the Fab, and not the Fc region, established greater thermal stability due to FSH binding (FIG. 8C).

T1 sequence (P01215 25-116, chain 1 of 2): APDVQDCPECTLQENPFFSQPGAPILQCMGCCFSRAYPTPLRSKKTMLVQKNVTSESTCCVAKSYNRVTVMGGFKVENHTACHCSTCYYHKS
T1 sequence (P01225 19-129, chain 2 of 2): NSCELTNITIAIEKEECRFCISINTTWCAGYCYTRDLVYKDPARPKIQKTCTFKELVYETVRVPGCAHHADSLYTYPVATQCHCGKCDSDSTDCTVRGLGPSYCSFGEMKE

B1: humanized monoclonal anti-FSH antibody Hu6 (antibody, V domains shown)
VH: QVQLQESGPGLVKPSQTLSLTCTVSGFSITSDYAWNWIRQPPGKGLEWIGSIFSSGSINYNPSLKSRVTISRDTSKNQFSLKLSSVTAADTAVYYCARGGTGTDYWGQGTLVTVSS
VL: DIQMTQSPSSLSASVGDRVTITCRASQDISNYLSWYQQKPGKAIKLLIYYTSRLHSGVPSRFSGSGSGTDYTLTISSLQPEDFATYFCQQGHTLPPTFGGGTKVEIK
notes: also called MS-Hu6; formulated anti-FSH antibodies
For the protein B1, the “ΔTm of the Fab region on FSH binding” value stood at 3.1 °C.
